Data: US20230330249A1, “ANTIBODY-CONJUGATED CHEMICAL INDUCERS OF DEGRADATION OF BRM AND METHODS THEREOF” (Genentech, Inc., priority 2020, published 2023)
Where a chain is given by its changes, count along the chain named. Names may count otherwise.

Assays:
Lysosomal release assay = format: in vitro ADME, human; conditions: pH 5.5, 24 h; for Release in lysosomal extract: 10 μM linker-drug, human liver lysosomes 0.17 mg/mL, cysteine 5 mM, 37° C.
From the text: Lysosomal release assays were run to measure the release of the degrader from the L1 moeity in an environment that mimics intracellular milieu. For the degrader to be active at binding BRM and ferrying it to the ubiquitin ligase, the L1 must first be released.
The assay was run using an L1 bound to the BRM-binding compound, named “L1-BRM1-#” that corresponds to the respective CIDE. The test determine whether cleavage of the covalent attachment of the L1 to the BRM portion occurred. Linker-drugs ([…]) were incubated with human liver lysosomes (0.17 mg/mL) and cysteine (5 mM) in 100 mM citric acid buffer pH 5.5 for 24 h. The samples were analyzed by Q Exactive Orbitrap mass specrometers using LC mobile phase containing (A) 0.1% formic acid in water and (B) 0.1% formic acid in acetonitrile in a gradient.

BRM [1] = molecular target: T1, BRM (Homo sapiens, UniProt P51531); assay: Cell assay to determine DC50 and Dmax (nuclear BRM immunofluorescence), NCI-H1944 cells; format: cell-based; conditions: 24 h drug treatment, nuclear BRM signal
T1 construct: endogenous in cells; host or cells: HCC515
Experimental: (§1) Cell based assays were run in […] cell lines to determine the DC50 and Dmax of Ab-L1-CIDE. BJAB, HCC515 and H1944 cells were plated in 384 well plates at 5000, 4000 and 2500 cells/well, respectively. The next day Ab-CIDEs were added. Following 24 h of drug treatment the cells were fixed with 4% formaldehyde for 15 minutes. The plates were washed three time with PBS. The cells were incubated with IF blocking solution (10% FCS, 1% BSA, […] in PBS). After 1.5 h a 2× solution of primary antibody diluted in IF blocking buffer: BRM (Cell signaling Cat #11966, 1:2000) was added. The plates were incubated over night at 4° C. The following morning cells were washed three time with PBS. Cells were then incubated with secondary antibodies (rabbit-Alexa 488 A21206 (1:2000)) for 1 h at room temperature in the dark. Hoechst H3570 at 1:5000 was added to the wells and the plates were incubated for an additional 30 minutes. Plates were wash 3×PBS and image on Opera Phenix™ High Content Screening System. Using nuclear staining as a mask, nuclear BRM mean signal intensity was quantified.
(§2) The data evidence the successful antibody targeting strategies disclosed herein.

BRM [2] = molecular target: T1, BRM; assay: Cell assay to determine DC50 and Dmax (nuclear BRM immunofluorescence), HCC515 cells; format: cell-based; conditions: 24 h drug treatment, nuclear BRM signal
Experimental: as §1, §2

T1 sequence (P51531 whole entry): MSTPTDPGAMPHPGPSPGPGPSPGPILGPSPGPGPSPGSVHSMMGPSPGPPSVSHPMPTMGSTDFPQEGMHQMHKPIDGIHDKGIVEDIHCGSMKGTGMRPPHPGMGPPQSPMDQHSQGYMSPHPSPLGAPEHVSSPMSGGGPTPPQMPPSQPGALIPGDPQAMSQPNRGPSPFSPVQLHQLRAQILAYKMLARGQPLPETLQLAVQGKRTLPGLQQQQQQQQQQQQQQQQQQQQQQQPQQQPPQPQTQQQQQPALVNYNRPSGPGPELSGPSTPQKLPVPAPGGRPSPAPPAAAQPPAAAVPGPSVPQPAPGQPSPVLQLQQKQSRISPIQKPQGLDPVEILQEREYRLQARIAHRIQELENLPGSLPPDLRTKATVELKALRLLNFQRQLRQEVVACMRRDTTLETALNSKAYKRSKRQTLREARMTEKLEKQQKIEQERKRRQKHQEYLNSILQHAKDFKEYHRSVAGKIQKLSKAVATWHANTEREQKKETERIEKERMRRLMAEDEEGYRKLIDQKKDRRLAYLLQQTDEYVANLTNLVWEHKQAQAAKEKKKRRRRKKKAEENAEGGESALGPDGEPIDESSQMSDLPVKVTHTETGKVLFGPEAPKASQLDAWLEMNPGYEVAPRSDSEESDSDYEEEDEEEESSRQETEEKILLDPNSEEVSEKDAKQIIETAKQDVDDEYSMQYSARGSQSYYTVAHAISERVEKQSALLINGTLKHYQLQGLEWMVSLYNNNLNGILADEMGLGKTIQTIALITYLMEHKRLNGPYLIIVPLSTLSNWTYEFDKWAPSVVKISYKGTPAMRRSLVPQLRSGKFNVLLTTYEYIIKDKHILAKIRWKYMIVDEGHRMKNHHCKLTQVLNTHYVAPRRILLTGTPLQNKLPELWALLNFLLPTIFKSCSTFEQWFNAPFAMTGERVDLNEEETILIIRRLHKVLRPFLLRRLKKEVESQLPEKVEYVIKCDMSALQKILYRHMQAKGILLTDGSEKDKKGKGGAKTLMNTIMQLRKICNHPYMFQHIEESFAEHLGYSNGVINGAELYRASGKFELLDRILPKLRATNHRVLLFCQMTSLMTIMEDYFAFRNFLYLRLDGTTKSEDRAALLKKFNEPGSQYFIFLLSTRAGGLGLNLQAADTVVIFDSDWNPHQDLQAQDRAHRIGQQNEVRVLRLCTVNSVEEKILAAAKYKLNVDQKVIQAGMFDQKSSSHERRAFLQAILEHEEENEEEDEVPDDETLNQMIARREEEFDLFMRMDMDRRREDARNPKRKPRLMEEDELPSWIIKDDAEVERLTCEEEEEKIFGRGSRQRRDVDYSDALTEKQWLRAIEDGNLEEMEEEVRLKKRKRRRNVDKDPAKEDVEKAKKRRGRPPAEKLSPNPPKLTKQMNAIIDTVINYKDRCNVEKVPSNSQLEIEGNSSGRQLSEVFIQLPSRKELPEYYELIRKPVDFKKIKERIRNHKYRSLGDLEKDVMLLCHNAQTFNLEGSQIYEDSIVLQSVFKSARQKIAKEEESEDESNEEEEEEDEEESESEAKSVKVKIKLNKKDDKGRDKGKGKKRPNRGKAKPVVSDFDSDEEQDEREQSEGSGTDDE

In the case of Cc1ncsc1-c1ccc([C@H](C)NC(=O)[C@@H]2C[C@@H](OC(=O)OC(C)C(C)(C)SS(C)(=O)=O)CN2C(=O)[C@@H](c2cc(OCCN3CCN(CCOc4cc(N5C6CCC5CN(c5cc(-c7ccccc7OCOP(=O)(O)O)nnc5N)C6)ccn4)[C@H](C)C3)no2)C(C)C)cc1 (stereo partly shown) [L1-BRM1-9], the “Release in lysosomal extract” value (Lysosomal release assay) is reported as “Yes (“Yes” indicates >50% free drug observed after 24 h incubation at 37 °C in lysosomal extract.)”.

For Cc1ncsc1-c1ccc([C@H](C)NC(=O)[C@@H]2C[C@@H](O)CN2C(=O)[C@@H](c2cc(OCCN3CCN(CCOc4cc(N5C6CCC5CN(c5cc(-c7ccccc7OCc7ccc(NC(=O)[C@H](CCCNC(N)=O)NC(=O)C8(C(=O)NCCCCCN9C(=O)C=CC9=O)CCC8)cc7)nnc5N)C6)ccn4)[C@H](C)C3)no2)C(C)C)cc1 [L1-BRM1-13], the “Release in lysosomal extract” value (Lysosomal release assay) was “Yes (“Yes” indicates >50% free drug observed after 24 h incubation at 37 °C in lysosomal extract.)”.

For Cc1ncsc1-c1ccc([C@H](C)NC(=O)[C@@H]2C[C@@H](O)CN2C(=O)[C@@H](c2cc(OCCN3CCN(CCOc4cc(N5C6CCC5CN(c5cc(-c7ccccc7OS(=O)(=O)Oc7cc(C(=O)NCCOCCOCCOCCn8cc(COCCOCCOCCOCCNC(=O)CCN9C(=O)C=CC9=O)nn8)ccc7O[C@@H]7O[C@H](CO)[C@H](O)[C@H](O)[C@H]7O)nnc5N)C6)ccn4)[C@H](C)C3)no2)C(C)C)cc1 [L1-CIDE-BRM1-15], the “Release of the degrader in lysosomal extracts” value (Lysosomal release assay; human liver lysosomes) was “did not release the degrader”.

In the case of Cc1ncsc1-c1ccc([C@H](C)NC(=O)[C@@H]2C[C@@H](O)CN2C(=O)[C@@H](c2cc(OCCN3CCN(CCOc4cc(N5C6CCC5CN(c5cc(-c7ccccc7O)nnc5NC(=O)OCc5ccc(NC(=O)[C@H](CCCNC(N)=O)NC(=O)C7(C(=O)NCCCCCN8C(=O)C=CC8=O)CCC7)cc5)C6)ccn4)[C@H](C)C3)no2)C(C)C)cc1 [L1-BRM1-20], the “Release in lysosomal extract” value (Lysosomal release assay) is reported as “Yes (“Yes” indicates >50% free drug observed after 24 h incubation at 37 °C in lysosomal extract.)”.

B1: Thio Hu Anti-TfR1.NG2LH.FcRn null high DAR [HC:L174C HC:Y373C LC:K149C] MC-sqCit BRM CIDE Ab-L1-CIDE-BRM1-13 (conjugate)
heavy: EVQLVQSGAEVKKPGASVKVSCKASGYTFTSYWMHWVRQAPGQRLEWIGEINPTNGRTNYIEKFKSRATLTVDKSASTAYMELSSLRSEDTAVYYCARGTRAYHYWGQGTMVTVSSASTKGPSVFPLAPSSKSTSGGTAALGCLVKDYFPEPVTVSWNSGALTSGVHTFPAVCQSSGLYSLSSVVTVPSSSLGTQTYICNVNHKPSNTKVDKKVEPKSCDKTHTCPPCPAPPVAGPSVFLFPPKPKDTLMISRTPEVTCVVVDVSHEDPEVKFNWYVDGVEVHNAKTKPREEQYGSTYRVVSVLTVLHQDWLNGKEYKCKVSNKALPAPIEKTISKAKGQPREPQVYTLPPSREEMTKNQVSLTCLVKGFCPSDIAVEWESNGQPENNYKTTPPVLDSDGSFFLYSKLTVDKSRWQQGNVFSCSVMHEALHNHYTQKSLSLSPGK
light: DIQMTQSPSSLSASVGDRVTITCRASDNLYSNLAWYQQKPGKSPKLLVYDATNLADGVPSRFSGSGSGTDYTLTISSLQPEDFATYYCQHFWGTPLTFGQGTKVEIKRTVAAPSVFIFPPSDEQLKSGTASVVCLLNNFYPREAKVQWCVDNALQSGNSQESVTEQDSKDSTYSLSSTLTLSKADYEKHKVYACEVTHQGLSSPVTKSFNRGEC
With B1 the “NCI-HI944 DC50” value (BRM [1]) was 0.07 µg/mL and the “NCI-HI944 Dmax” value (BRM [1]) was 77.

B2: Thio Hu Anti-TfR2.NG2LH high DAR [HC:L174C HC:Y373C LC:K149C] diMe Me disulfide BRM degrader phos Ab-L1-CIDE-BRM1-9 (conjugate)
heavy: B1 heavy
light: B1 light with W92A
In the case of B2, the “NCI-HI944 DC50” value (BRM [1]) is reported as 0.74 µg/mL, the “NCI-HI944 Dmax” value (BRM [1]) is reported as 94 and the “HCC515 DC50” value (BRM [2]) is reported as 0.12 µg/mL. For the same molecule, the “HCC515 Dmax” value (BRM [2]) was 96.
